The record followed here is IntAct's records for PubMed 36931259.

To fix the notation:
B1: 14-3-3 protein sigma (Homo sapiens), P31947 (parent)
chain: MERASLIQKAKLAEQAERYEDMAAFMKGAVEKGEELSCEERNLLSVAYKNVVGGQRAAWRVLSSIEQKSNEEGSEEKGPEVREYREKVETELQGVCDTVLGLLDSHLIKEAGDAESRVFYLKMKGDYYRYLAEVATGDDKKRIIDSARSAYQEAMDISKKEMPPTNPIRLGLALNFSVFHYEIANSPEEAISLAKTTFDEAMADLHTLSEDSYKDSTLIMQLLRDNLTLWTADNAGEEGGEAPQEPQS
partner: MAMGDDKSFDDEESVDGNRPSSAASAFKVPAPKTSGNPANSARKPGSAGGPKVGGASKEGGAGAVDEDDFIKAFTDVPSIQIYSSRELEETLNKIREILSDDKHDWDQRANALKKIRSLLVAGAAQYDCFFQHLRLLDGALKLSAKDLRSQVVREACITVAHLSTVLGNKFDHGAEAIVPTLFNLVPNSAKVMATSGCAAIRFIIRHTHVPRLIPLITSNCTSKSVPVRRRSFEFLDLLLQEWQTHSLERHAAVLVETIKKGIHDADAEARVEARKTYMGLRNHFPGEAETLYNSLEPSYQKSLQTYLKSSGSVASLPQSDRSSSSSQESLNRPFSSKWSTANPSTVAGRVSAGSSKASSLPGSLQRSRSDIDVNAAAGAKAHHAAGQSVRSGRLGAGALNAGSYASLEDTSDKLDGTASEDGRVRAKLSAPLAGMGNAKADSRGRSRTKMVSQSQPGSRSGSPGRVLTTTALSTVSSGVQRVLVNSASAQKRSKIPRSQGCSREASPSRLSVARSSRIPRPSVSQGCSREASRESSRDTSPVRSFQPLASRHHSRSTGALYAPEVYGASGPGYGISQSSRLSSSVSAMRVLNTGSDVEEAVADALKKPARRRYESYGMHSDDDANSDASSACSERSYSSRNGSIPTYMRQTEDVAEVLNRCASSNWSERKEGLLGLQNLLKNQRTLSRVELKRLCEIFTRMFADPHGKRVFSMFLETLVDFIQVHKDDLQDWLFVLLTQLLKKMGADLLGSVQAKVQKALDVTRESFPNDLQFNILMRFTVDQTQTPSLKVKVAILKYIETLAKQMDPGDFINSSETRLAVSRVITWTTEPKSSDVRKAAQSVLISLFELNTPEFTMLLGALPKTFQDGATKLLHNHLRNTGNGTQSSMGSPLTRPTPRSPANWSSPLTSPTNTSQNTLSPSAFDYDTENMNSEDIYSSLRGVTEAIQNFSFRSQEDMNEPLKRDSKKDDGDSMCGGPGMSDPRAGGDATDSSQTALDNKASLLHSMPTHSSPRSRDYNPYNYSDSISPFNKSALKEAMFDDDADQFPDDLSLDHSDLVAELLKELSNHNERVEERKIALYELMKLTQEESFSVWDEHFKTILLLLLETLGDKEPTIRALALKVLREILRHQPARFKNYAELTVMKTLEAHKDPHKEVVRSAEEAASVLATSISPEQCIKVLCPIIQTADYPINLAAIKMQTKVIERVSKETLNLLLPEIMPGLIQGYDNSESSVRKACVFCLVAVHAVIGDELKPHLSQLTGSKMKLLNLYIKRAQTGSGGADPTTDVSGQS
B2: 14-3-3 protein sigma (Homo sapiens), P31947 (parent)
chain: B1 chain
partner: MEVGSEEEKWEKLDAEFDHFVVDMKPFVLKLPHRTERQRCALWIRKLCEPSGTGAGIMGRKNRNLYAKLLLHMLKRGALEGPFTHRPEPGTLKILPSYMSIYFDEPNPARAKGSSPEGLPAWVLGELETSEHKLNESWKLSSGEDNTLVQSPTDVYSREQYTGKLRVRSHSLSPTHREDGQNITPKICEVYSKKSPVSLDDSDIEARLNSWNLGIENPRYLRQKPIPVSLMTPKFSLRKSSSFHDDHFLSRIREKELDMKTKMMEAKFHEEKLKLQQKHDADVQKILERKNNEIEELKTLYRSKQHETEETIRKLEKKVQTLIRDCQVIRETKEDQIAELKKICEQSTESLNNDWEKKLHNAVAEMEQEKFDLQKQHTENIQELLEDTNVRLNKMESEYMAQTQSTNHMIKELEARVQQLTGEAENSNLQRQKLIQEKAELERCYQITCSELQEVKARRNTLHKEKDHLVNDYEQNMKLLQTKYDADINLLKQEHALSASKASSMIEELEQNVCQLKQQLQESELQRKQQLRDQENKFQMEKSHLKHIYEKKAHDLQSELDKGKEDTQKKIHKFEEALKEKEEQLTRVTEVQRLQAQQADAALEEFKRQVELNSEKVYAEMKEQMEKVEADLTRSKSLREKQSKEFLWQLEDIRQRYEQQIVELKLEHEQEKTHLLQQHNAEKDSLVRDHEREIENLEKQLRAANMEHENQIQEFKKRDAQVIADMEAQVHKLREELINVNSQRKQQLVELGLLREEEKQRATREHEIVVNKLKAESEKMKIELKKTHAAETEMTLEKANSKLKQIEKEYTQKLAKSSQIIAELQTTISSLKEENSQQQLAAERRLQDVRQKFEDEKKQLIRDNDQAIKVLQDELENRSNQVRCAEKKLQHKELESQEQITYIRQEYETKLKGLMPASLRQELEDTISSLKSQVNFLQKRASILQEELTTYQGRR
B3: Kinesin-like protein KIF1C (Homo sapiens), O43896 (parent)
chain: MAGASVKVAVRVRPFNARETSQDAKCVVSMQGNTTSIINPKQSKDAPKSFTFDYSYWSHTSTEDPQFASQQQVYRDIGEEMLLHAFEGYNVCIFAYGQTGAGKSYTMMGRQEPGQQGIVPQLCEDLFSRVSENQSAQLSYSVEVSYMEIYCERVRDLLNPKSRGSLRVREHPILGPYVQDLSKLAVTSYADIADLMDCGNKARTVAATNMNETSSRSHAVFTIVFTQRCHDQLTGLDSEKVSKISLVDLAGSERADSSGARGMRLKEGANINKSLTTLGKVISALADMQSKKRKSDFIPYRDSVLTWLLKENLGGNSRTAMIAALSPADINYEETLSTLRYADRTKQIRCNAIINEDPNARLIRELQEEVARLRELLMAQGLSASALEGLKTEEGSVRGALPAVSSPPAPVSPSSPTTHNGELEPSFSPNTESQIGPEEAMERLQETEKIIAELNETWEEKLRKTEALRMEREALLAEMGVAVREDGGTVGVFSPKKTPHLVNLNEDPLMSECLLYHIKDGVTRVGQVDMDIKLTGQFIREQHCLFRSIPQPDGEVVVTLEPCEGAETYVNGKLVTEPLVLKSGNRIVMGKNHVFRFNHPEQARLERERGVPPPPGPPSEPVDWNFAQKELLEQQGIDIKLEMEKRLQDLENQYRKEKEEADLLLEQQRLYADSDSGDDSDKRSCEESWRLISSLREQLPPTTVQTIVKRCGLPSSGKRRAPRRVYQIPQRRRLQGKDPRWATMADLKMQAVKEICYEVALADFRHGRAEIEALAALKMRELCRTYGKPDGPGDAWRAVARDVWDTVGEEEGGGAGSGGGSEEGARGAEVEDLRAHIDKLTGILQEVKLQNSSKDRELQALRDRMLRMERVIPLAQDHEDENEEGGEVPWAPPEGSEAAEEAAPSDRMPSARPPSPPLSSWERVSRLMEEDPAFRRGRLRWLKQEQLRLQGLQGSGGRGGGLRRPPARFVPPHDCKLRFPFKSNPQHRESWPGMGSGEAPTPLQPPEEVTPHPATPARRPPSPRRSHHPRRNSLDGGGRSRGAGSAQPEPQHFQPKKHNSYPQPPQPYPAQRPPGPRYPPYTTPPRMRRQRSAPDLKESGAAV
partner: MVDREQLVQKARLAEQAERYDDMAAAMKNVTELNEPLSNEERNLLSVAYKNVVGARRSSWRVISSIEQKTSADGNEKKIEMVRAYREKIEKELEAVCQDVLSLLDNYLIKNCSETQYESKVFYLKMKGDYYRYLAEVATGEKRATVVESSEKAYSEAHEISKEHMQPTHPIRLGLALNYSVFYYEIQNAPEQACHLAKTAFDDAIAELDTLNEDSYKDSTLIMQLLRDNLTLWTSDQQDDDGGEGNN
B4: 14-3-3 protein sigma (Homo sapiens), P31947 (parent)
chain: B1 chain
partner: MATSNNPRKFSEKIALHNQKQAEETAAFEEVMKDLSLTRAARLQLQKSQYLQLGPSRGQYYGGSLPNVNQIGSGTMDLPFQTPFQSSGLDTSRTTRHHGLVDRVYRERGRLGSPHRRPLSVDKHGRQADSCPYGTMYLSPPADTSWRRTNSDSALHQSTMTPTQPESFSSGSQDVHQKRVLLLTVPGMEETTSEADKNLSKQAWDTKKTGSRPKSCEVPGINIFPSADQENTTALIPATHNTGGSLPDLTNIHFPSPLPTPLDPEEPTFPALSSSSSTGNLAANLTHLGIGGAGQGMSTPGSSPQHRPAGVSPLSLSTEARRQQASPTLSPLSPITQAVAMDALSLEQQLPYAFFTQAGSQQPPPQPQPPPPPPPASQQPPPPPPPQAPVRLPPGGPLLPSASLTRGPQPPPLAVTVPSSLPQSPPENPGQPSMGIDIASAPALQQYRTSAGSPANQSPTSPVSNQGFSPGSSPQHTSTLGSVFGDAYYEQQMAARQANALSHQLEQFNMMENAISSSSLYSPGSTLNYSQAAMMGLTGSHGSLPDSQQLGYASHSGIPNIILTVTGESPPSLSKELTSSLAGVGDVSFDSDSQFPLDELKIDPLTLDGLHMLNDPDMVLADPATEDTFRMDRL
B5: Kinesin light chain 3 (Homo sapiens), Q6P597 (parent)
chain: MSVQVAAPGSAGLGPERLSPEELVRQTRQVVQGLEALRAEHHGLAGHLAEALAGQGPAAGLEMLEEKQQVVSHSLEAIELGLGEAQVLLALSAHVGALEAEKQRLRSQARRLAQENVWLREELEETQRRLRASEESVAQLEEEKRHLEFLGQLRQYDPPAESQQSESPPRRDSLASLFPSEEEERKGPEAAGAAAAQQGGYEIPARLRTLHNLVIQYAGQGRYEVAVPLCRQALEDLERSSGHCHPDVATMLNILALVYRDQNKYKEATDLLHDALQIREQTLGPEHPAVAATLNNLAVLYGKRGRYREAEPLCQRALEIREKVLGADHPDVAKQLNNLALLCQNQGKFEDVERHYARALSIYEALGGPHDPNVAKTKNNLASAYLKQNKYQQAEELYKEILHKEDLPAPLGAPNTGTAGDAEQALRRSSSLSKIRESIRRGSEKLVSRLRGEAAAGAAGMKRAMSLNTLNVDAPRAPGTQFPSWHLDKAPRTLSASTQDLSPH
partner: B3 partner
B6: 14-3-3 protein sigma (Homo sapiens), P31947 (parent)
chain: B1 chain
partner: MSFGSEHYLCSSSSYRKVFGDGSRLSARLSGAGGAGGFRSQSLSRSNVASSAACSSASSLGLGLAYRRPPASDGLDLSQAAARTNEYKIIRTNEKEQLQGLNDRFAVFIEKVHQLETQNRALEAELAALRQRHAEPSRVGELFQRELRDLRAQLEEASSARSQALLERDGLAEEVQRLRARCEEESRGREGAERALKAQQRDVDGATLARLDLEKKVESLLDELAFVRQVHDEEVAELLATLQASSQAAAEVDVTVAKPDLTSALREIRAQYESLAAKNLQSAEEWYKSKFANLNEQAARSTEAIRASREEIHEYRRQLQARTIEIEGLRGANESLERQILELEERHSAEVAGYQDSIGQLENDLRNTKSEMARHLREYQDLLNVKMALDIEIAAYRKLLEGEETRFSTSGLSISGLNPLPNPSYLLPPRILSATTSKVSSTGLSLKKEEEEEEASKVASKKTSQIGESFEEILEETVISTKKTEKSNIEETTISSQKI

The first experiment covers variants of B1. Conditions: with clap2_human CLASP2, O75122.
On to MERASLIQKAKLAEQAERYEDMAAFMKGAVEKGEELSCEERNLLSVAYENVVGGQEAAWRVLSSIEQKSNEEGSEEKGPEVREYREKVETELQGVCDTVLGLLDSHLIKEAGDAESRVFYLKMKGDYYRYLAEVATGDDKKRIIDSARSAYQEAMDISKKEMPPTNPIRLGLALNFSDFHYEIANSPEEAISLAKTTFDEAMADLHTLSEDSYKDSTLIMQLLRDNLTLWTADNAGEEGGEAPQEPQS [K49E;R56E;V178D], for which the “effect of a mutation on the interaction” value is reported as “decreasing interaction strength”.

Another experiment covers variants of B2. The settings on record: with ce112_human CEP112, Q8N8E3.
As to MERASLIQKAKLAEQAERYEDMAAFMKGAVEKGEELSCEERNLLSVAYENVVGGQEAAWRVLSSIEQKSNEEGSEEKGPEVREYREKVETELQGVCDTVLGLLDSHLIKEAGDAESRVFYLKMKGDYYRYLAEVATGDDKKRIIDSARSAYQEAMDISKKEMPPTNPIRLGLALNFSDFHYEIANSPEEAISLAKTTFDEAMADLHTLSEDSYKDSTLIMQLLRDNLTLWTADNAGEEGGEAPQEPQS [K49E;R56E;V178D], the “effect of a mutation on the interaction” value is “decreasing interaction strength”.

The variants in the next experiment derive from B3. The settings on record: with 1433g_human YWHAG.
With S915A;S1033A;S1092A, the “effect of a mutation on the interaction” value is given as “disrupting interaction strength”.

A further experiment covers variants of B4. Conditions: with crtc1_human CRTC1, Q6UUV9.
Turning to MERASLIQKAKLAEQAERYEDMAAFMKGAVEKGEELSCEERNLLSVAYENVVGGQEAAWRVLSSIEQKSNEEGSEEKGPEVREYREKVETELQGVCDTVLGLLDSHLIKEAGDAESRVFYLKMKGDYYRYLAEVATGDDKKRIIDSARSAYQEAMDISKKEMPPTNPIRLGLALNFSDFHYEIANSPEEAISLAKTTFDEAMADLHTLSEDSYKDSTLIMQLLRDNLTLWTADNAGEEGGEAPQEPQS [K49E;R56E;V178D], the “effect of a mutation on the interaction” value is recorded as “decreasing interaction strength”.

The variants in a further experiment derive from B5. Conditions: with 1433g_human YWHAG.
Take S431A;S466A;S497A: the “effect of a mutation on the interaction” value is on record as “disrupting interaction strength”.

Another experiment covers variants of B6. Conditions: with ainx_human INA.
On to MERASLIQKAKLAEQAERYEDMAAFMKGAVEKGEELSCEERNLLSVAYENVVGGQEAAWRVLSSIEQKSNEEGSEEKGPEVREYREKVETELQGVCDTVLGLLDSHLIKEAGDAESRVFYLKMKGDYYRYLAEVATGDDKKRIIDSARSAYQEAMDISKKEMPPTNPIRLGLALNFSDFHYEIANSPEEAISLAKTTFDEAMADLHTLSEDSYKDSTLIMQLLRDNLTLWTADNAGEEGGEAPQEPQS [K49E;R56E;V178D], for which the “effect of a mutation on the interaction” value was “decreasing interaction strength”.
